Experimental data published in patent publication US20240199750A1.

Columns and labels:
[1] = target: IL-2Rβ (CD122) on NK cells (human) (UniProt P14784); test: cell-based or functional assay
[2] = target: high affinity IL-2Rαβγ complex on Treg cells (human) (UniProt P01589); test: cell-based or functional assay
UniProt P01589, sequence (P01589 22-272, chain 1 of 3): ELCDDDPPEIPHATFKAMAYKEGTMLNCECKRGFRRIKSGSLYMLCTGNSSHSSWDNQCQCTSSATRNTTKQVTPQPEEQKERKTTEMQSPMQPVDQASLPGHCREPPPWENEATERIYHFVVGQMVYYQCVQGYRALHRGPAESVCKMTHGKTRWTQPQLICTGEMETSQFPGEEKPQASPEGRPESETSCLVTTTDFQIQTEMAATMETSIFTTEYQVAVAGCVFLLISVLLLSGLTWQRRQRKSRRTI
UniProt P01589, sequence (P14784 27-551, chain 2 of 3, further chain): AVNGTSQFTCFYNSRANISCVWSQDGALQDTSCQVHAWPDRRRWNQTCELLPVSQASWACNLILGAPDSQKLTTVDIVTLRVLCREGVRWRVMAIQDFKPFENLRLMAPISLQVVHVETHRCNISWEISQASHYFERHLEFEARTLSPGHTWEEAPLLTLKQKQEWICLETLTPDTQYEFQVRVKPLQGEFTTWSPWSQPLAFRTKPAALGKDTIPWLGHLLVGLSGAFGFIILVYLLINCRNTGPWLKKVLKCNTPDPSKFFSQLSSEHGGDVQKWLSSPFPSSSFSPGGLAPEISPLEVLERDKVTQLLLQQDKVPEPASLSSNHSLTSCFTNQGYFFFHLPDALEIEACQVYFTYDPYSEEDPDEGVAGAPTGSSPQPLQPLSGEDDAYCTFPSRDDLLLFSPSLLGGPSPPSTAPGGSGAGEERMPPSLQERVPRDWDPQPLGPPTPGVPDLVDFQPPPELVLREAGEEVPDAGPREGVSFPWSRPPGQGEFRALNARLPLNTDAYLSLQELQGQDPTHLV
UniProt P01589, sequence (P31785 23-369, chain 3 of 3, further chain): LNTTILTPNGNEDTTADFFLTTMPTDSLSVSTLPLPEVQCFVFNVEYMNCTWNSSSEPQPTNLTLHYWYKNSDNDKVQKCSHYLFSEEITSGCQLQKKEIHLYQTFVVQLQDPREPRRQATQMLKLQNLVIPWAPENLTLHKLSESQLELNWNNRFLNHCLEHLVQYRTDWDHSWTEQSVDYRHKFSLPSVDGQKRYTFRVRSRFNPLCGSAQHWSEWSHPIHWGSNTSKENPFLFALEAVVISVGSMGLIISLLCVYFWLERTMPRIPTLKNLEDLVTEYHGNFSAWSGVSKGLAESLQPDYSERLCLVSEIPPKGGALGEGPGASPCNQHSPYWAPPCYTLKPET

UniProt P14784, sequence (P14784 27-551): as the sequence (P14784 27-551, chain 2 of 3, further chain) above

% pSTAT5, EC50 NK cells [1]: 10 pM
% pSTAT5, EC50 Tregs [2]: 0.7 nM
B1: CD20-T5-NKp46-IL2v3 (protein, part only; not given: anti-CD20 antibody chains, anti-NKp46 domain, part only)
chain, part: SSSTKKTQLQLEHLLLDLQMILNGINNYKNPKLTAMLAKKFYMPKKATELKHLQCLEEELKPLEEVLNLAQSKNFHLRPRDLISNINVIVLELKGSETTFMCEYADETATIVEFLNRWITFCQSIISTLT
